According to paper PMC12579237, “Development of antibody drug conjugates targeting epithelial membrane protein 2-highly expressed lung cancer” (Cell Death & Disease, 2025):

T1: Purified EMP2 protein (human, UniProt P54851 1-167)
T1 chain: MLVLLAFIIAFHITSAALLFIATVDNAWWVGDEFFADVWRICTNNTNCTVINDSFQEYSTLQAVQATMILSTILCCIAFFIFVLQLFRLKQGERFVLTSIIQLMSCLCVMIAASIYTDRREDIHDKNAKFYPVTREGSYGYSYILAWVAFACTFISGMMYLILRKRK

T2: Peptide 4. KFYPVTREGS (129-138aa) (Homo sapiens)
T2 construct: human EMP2 residues 129-138; source: synthetic peptide (GenScript)
T2 chain: KFYPVTREGS

B1: FK002-exatecan (antibody, V domains shown)
VH: DVQLQESGPGLVKPSQSLSLTCSVTGYSITSGYYWNWIRQFPGNKLEWMGYIRYDGRNNYNPSLKNRISITRDTSKNQFFLKLNSVTTEDTATYYCARDFDYWGQGTTLTVSS
VL: DIVLTQSPASLAVSLGQRATISCRASESVDTYGNSFMHWYQQKPGQPPKLLIYRASNLESGIPARFSGSGSRTDFTLTINPVEADDVATYYCHQSNEDPDTFGGGTKLEIKR
modifications: exatecan conjugated by the T1000 (Mc-VA-PABC(PSAR1o)) linker to the fully reduced antibody; DAR approximately 8 per antibody; residues not stated | exatecan conjugated by the T1000 (Mc-VA-PABC(PSAR1o)) linker to the fully reduced antibody; DAR approximately 8 per antibody; residues not stated
B2: FK002 antibody (mouse mAb) (antibody, V domains shown)
VH: B1 VH
VL: DIVLTQSPASLAVSLGQRATISCRASESVDTYGNSFMHWYQQKPGQPPKLLIYRASNLESGIPARFSGSGSRTDFTLTINPVEADDVATYYCHQSNEDPDTFGGGTKLEIK
notes: V region of the printed chimeric heavy chain; mouse IgG heavy constant region; V region of the printed chimeric light chain; mouse light constant region; Flow cytometry, immunofluorescence, immunoblot and dot blot used the mouse mAb (anti-mouse secondary antibodies); also called FK002Ab; FK002 mAb; source: hybridoma, mouse ascites (from Abmart)

Legend:
hEMP2-GFP [1] = target: T3, hEMP2-GFP (Homo sapiens, UniProt P54851)
T3 construct: epithelial membrane protein 2 (EMP2), human, fused to GFP; also called human EMP2-GFP; pCDH-EMP2-GFP; source: HEK293T, transfected, in lysate; A549, transfected, in cells; stably overexpressed (lentivirus) in A549, NCI-H520 and LLC cells

hEMP2-GFP [2] = target: T3, hEMP2-GFP; assay: immunostaining of cells or tissue; immunofluorescence of A549 cells transfected with hEMP2-GFP, stained with FK002; colocalization quantified; settings: one partner purified
Purified EMP2 protein [3] = target: T1, Purified EMP2 protein; assay: SPR; Biacore 8K; EMP2 protein (approximately 12,000 RU) amine coupled; FK002Ab injected at 8 concentrations (0.02-1 μM), 20 μL/min, 100 s association, 180 s dissociation; PBS pH 7.2-7.4 with 1% dimethyl sulfoxide
[4] = target: T4, epithelial membrane protein 2 (EMP2), endogenous in NCI-H226 cells (Homo sapiens, UniProt P54851); assay: affinity purification with mass spectrometry; FK002 antibody incubated with NCI-H226 whole-cell lysate; immunoprecipitate silver stained, qualitative mass spectrometry; settings: one partner purified
T4 construct: epithelial membrane protein 2 (EMP2), human, endogenous in NCI-H226 lung squamous carcinoma cells; On live cells in the flow cytometry; in whole-cell lysate in the immunoprecipitation; also called human EMP2; source: endogenous, NCI-H226 whole-cell lysate; endogenous, on NCI-H226 cells

Purified EMP2 protein [5] = target: T1, Purified EMP2 protein; assay: SPR
[6] = target: T2, Peptide 4. KFYPVTREGS (129-138aa); assay: far-Western, overlay or dot blot; dot blot: 2.5 µL of each sample spotted on nitrocellulose (legend: 1 μg/spot), probed with FK002 antibody and HRP-conjugated mouse secondary antibody; settings: both partners purified

Binder | EMP2 left on the cell surface, flow cytometry of EMP2-overexpressing NCI-H520 and NCI-A549 cells with or without FK002-exatecan (100 nM) for 48 h (hEMP2-GFP [1]) | binding result (hEMP2-GFP [2]) | Kd (Purified EMP2 protein [3]) | binding result [4] | koff (Purified EMP2 protein [5]) | binding result [6]
B1 | < 35% | – | – | – | – | –
B2 | – | binds | 40.3 nM | binds | 0.00328 s⁻¹ | binds
